The values below come from patent US20160280788A1, “USE OF ANTIBODIES AGAINST ICAM-1 IN THE TREATMENT OF PATIENTS WITH RELAPSED CANCER” (BioInvent International AB, priority 2010, published 2016).

“Also recorded” adds a separate entry of the source.

One series deals with Daudi cells. The experiment in a line: Subcutaneous Daudi non-Hodgkin lymphoma xenograft. It counts as in vivo, scid mice. The note with it: twice weekly i.p. from day 1; compared to rituximab.
For series [1], the system named is ARH-77 cells. Put plainly: Disseminated scid/ARH-77 model of multiple myeloma. It counts as in vivo, scid mice. The note with it: i.v. on Days 7, 10, 13, 16; antibody 2 mg/kg, bortezomib 0.5 mg/kg; vs control. The procedure:
(§1) ARH-77 cells or RPMI-8226 were injected intraveniously into the SCID mice. (FIG. 6A) ARH-77 model. Animals received intravenous injections with antibody at 2 mg/kg or bortezomib (Velcade) at 0.5 mg/kg on Days 7, 10, 13, and 16 (as indicated by arrows in the graph). (FIG. 6B) RPMI-8226-model. BI-505 or control mAb was administered i.v at 2 mg/kg, twice weekly for 8 weeks, bortezomid, at 1 mg/kg, once weekly for 8 weeks, lenalidomide p.o with 2 mg/kg for 2 cycles consisting of 5 days of treatment and 2 days of wash out, melphalan i.v at 3 mg/kg, once weekly for 8 weeks, and dexamethasone (DXH) at 6 mg/kg/inj 3 times/week for 2 consecutive weeks. There were 6-10 mice per treatment group. Statistical significance was calculated using Log-rank Graphpad Prism software and determined at ***p<0.001. (FIG. 6C) To study the ICAM-1 level on human cells, the cells from different organs were stained and gated for CD38+/mCD45−/BI-505+. Left panel indicates the percentage of BI-505 positive cells in CD38+/mCD45 population and right panel the mean fluorescent intensity of the positive cells.
The anti-myeloma effect of BI-505 was examined in a disseminated model of multiple myeloma. The early and advanced disseminated model of multiple myeloma was performed at Oncodesign, Dijon, France. Briefly: 1×10^6 (early) or 5×10^6 (advanced) ARH-77 tumor cells in 200 μL of RPMI 1640 were injected intravenously (i.v) into the caudal vein of female scid mice (D0). Tumor cell injections were performed twenty four to forty eight hours after a whole body irradiation of mice (1.8 Gy, ^60Co, INRA, BRETENNIERES). The treatment was started at D5 (RPMI-8226 model) or D7 ([…] model) except alkeran which was administered at D10. B11 or control mAb was administered i.v. at 2 mg/kg, twice weekly for 8 weeks, bortezomib, at 1 mg/kg, once weekly for 8 weeks, lenalidomide p.o with 2 mg/kg for 2 cycles consisting of 5 days of treatment and 2 days of wash out, melphalan i.v. at 3 mg/kg, once weekly for 8 weeks and dexamethasone at 6 mg/kg, injected 2 consecutive weeks.
The disseminated model of scid/ARH-77 is a well-established experimental model that resembles human multiple myeloma disease progression and disease manifestation in many respects (33). We utilized this model to further characterize IgG B11 anti-myeloma activity (FIG. 6A). Intravenous injection of irradiated scid mice with 1×10^6 ARH-77 cells was previously shown to result in their dissemination and establishment in mouse bone-marrow, and resulting osteolytic bone-lesions and hypercalcemia, and ultimately, in animal paralysis or difficulty of breathing at which time animals were immediately sacrificed. […]

The next series has as its system RPMI-8226 myeloma cells. Put plainly: Disseminated RPMI-8226 model of multiple myeloma. The note with it: 2 mg/kg i.v. twice weekly for 8 weeks, vs control mAb and standard of care drugs. It counts as in vivo, SCID mice. As to the method:
as §1
The anti-myeloma effect of BI-505 was examined in a disseminated model of multiple myeloma. The early and advanced disseminated model of multiple myeloma was performed at Oncodesign, Dijon, France. […]

The target of a further series is T1, mouse FcγRIV (Mus musculus, UniProt A0A0B4J1G0).
T1 construct: made in house; host or cells: HEK293E (transient)
T1 sequence (A0A0B4J1G0 21-249): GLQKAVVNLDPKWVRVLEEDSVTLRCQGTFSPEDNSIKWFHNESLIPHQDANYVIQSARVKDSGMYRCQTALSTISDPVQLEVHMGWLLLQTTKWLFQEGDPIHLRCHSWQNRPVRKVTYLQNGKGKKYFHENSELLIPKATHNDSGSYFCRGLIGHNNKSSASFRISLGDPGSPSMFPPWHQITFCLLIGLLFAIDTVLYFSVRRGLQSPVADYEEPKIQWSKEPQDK
The experiment in a line: Biacore binding of BI-505 isotype variants to mouse FcγRIV. As to the method: His-tagged human FcγRIIIa or mouse FcγRIV were expressed transient in adherent HEK293E cells, purified using Ni-NTA chromatography and characterized using SDS-PAGE and/or Biacore. Surface plasmon resonance (SPR) measurements were perfomed using a Biacore 3000 instrument. Goat α-human-F(ab)′2 F(ab)′2 fragment (Jackson laboratories) was immobilised with a CM-5 chip using a standard amine coupling protocol. IgG1 B11, Iga4 B11, or 297Q B11 were diluted to 15 and 60 μg/mL respectively and added to the surface at […] for 3 min. His tagged human FcγRIIIa or mouse FcγRIV were pre-incubated with an α-HIS antibody (R&D Systems) at a 2:1 molar ratio before addition to the chip surface, […], 1 min. After each cycle the surface was regenerated twice with glycine buffer pH 1.7.
A general note: SPR reads the build-up and loss of mass on a sensor chip optically.

For series [2], the system named is HUVEC, HMVEC or peripheral blood B cells. The experiment in a line: CDC of normal ICAM-1 expressing cells. The class given is cell-based. As to the method:
Target cells were harvested and incubated in RPMI medium with antibodies at 5 μg/mL or at titrated concentrations between 0.01-100 μg/mL for 60 min on ice. Cells were thereafter washed and resuspended in cold medium before dispension into flow cytometry tubes. Treatments were performed in triplicates. Human serum, normal or heat-inactivated, (Sigma, Sweden) was added to tubes and the samples were incubated for 2 h at 37° C. After completed incubation ToPo-Pro-3 was added at a final concentration of 0.3 μM and cells were analyzed for membrane permeabilization using flow cytometry.

Series [3] concerns ARH-77 cells. The experiment in a line: Subcutaneous scid/ARH-77 xenograft, prophylactic model.
Procedure: Tumor cells were injected subcutaneously into the left flank of SCID mice. Mice received twice-weekly intraperitoneal injections with BI-505, control antibody or rituximab at doses of 20, 2 and/or 0.2 mg/kg commencing one day after tumor cell inoculation. There were 8 to 10 animals per treatment group. […] Statistical significance was calculated relative to control antibody treatment using Kruskal-Wallis Test (Nonparametric ANOVA) with Dunn's Multiple Comparisons Test (tumor volume) or the log-rank test (mouse survival) using Graphpad Instat or Prism software, respectively. Statistical significance was considered for *p<0.05, **p<0.01, and ***p<0.001.
Tumor cells were injected subcutaneously into the left flank of SCID mice. Mice received twice-weekly intraperitoneal injections with BI-505 at doses of 0.02-20 mg/kg commencing day after tumor cell inoculation. There were 8-10 animals per treatment group. […] Statistical significance was calculated relative to control antibody treatment using Kruskal-Wallis Test (Nonparametric ANOVA) with Dunn's Multiple Comparisons Test (tumor volume) or the log-rank test (mouse survival) using Graphpad Instat or Prism software, respectively. Statistical significance was considered for *p<0.05, **p<0.01, and ***p<0.001. Graphs illustrate representative experiments out of several performed.
(FIG. 7A) ARH-77 cells were injected subcutaneously into the left flank of SCID mice (n=8 per group). Mice were treated with the different BI-505 isotypes twice weekly. […] Statistical significance was calculated relative to control antibody treatment using Kruskal-Wallis Test (Nonparametric ANOVA) with Dunn's Multiple Comparisons Test. Statistical significance was considered for *p<0.05, **p<0.01, and ***p<0.001.
Mice were anaesthetized with a mixture of sevofluran and oxygen prior to myeloma cell inoculation and 1-5×10^6 myeloma cells were then subcutaneously injected in a volume of 100 μl into the left flank.

B1: IgG B11: fully human ICAM-1 antibody isolated from the n-CoDeR library; VH/VL sequences in FIG. 15 (SEQ ID NOs 8, 10) (antibody, V domains shown)
VH: EVQLLESGGGLVQPGGSLRLSCAASGFTFSNAWMSWVRQAPGKGLEWVAFIWYDGSNKYYADSVKGRFTISRDNSKNTLYLQMNSLRAEDTAVYYCARYSGWYFDYWGQGTLVTVSS
VL: QSVLTQPPSASGTPGQRVTISCTGSSSNIGAGYDVHWYQQLPGTAPKLLIYDNNNRPSGVPDRFSGSKSGTSASLAISGLRSEDEADYYCQSYDSSLSAWLFGGGTKLTVLG
modifications: B11 VH region; B11 VL region
Consider B1, for which the “survival of tumor bearing mice” value with Daudi cells was “prolonged survival”. The tumor growth result in the series on Daudi cells is reported as “prevented tumor growth”; in the series with ARH-77 cells [3] (20 mg/kg twice weekly i.p., commencing one day after tumor cell inoculation), “completely prevent tumor-growth”. The animal survival entry with ARH-77 cells [1] is given as “increased mean survival time”. Moreover, in the series on ARH-77 cells [1], the “time to symptomatic disease onset” value is given as “doubled”. Also, the survival entry in the series on RPMI-8226 myeloma cells is “significantly enhanced survival”; in the series on RPMI-8226 myeloma cells (listed as BI-505) it was “significantly enhances survival; also recorded: highly improved survival”; in the series on ARH-77 cells [3] (IgG B11 at 2 mg/kg, ten-fold lower dose than rituximab) it was “complete survival”. The “binding to murine FcγRIV” value in the series with mouse FcγRIV is “strong binding”. Besides, the “CDC of normal cells” value in series [2] is listed as “did not confer ADCC or CDC”. Further, in the series with ARH-77 cells [3] (dose of 0.2 mg/kg, dose titration), the anti-tumor activity result was “near maximal”. The “dose at which anti-tumor activity peaked” value with ARH-77 cells [3] (dose titration 0.02-20 mg/kg twice weekly i.p.) was 2 mg/kg.
